Values quoted from earlier work as cited in publication PMC4723247, “Novel α-L-Fucosidases from a Soil Metagenome for Production of Fucosylated Human Milk Oligosaccharides” (PLoS ONE, 2016).

B1: AlfA: α-L-fucosidase from Dictyostelium discoideum (Uniprot P10901) (protein, UniProt P10901 19-461, looked up)
Alpha-L-fucosidase: QQYGPTWDQINSRPLPGWYDDVKFGIFIHFGIYSVPAFANGGYAEWYWWTLKNPSSDGGATQRYHEKEFGANFTYQDFVSRFDCRLFDANEWASIIEKSGAKYVVLTSKHHEGYTLWNSEQSWNWNSVETGPGIDIVGELTKSVKNMGLHMGLYHSLFEWFNPLYLADAETGKNPTTQVYVDEILMKQLKDIVTTYEPELIWADGDWMQLSNYWKSTEFLSWLYTNSSVKDTVIVNDRWGSECRDKNGGFYTGADHFNPYKLQSHKWENCATIGYSYGYDEYEQATDYQNATELIIDLVTTVACGGNFLLDVGPDAQGTIPNNMVDRLLEIGNWLSINSESIYGSSPWRVQNMTFNIWYTTNTTNGNVYAFVFELPDDGVLILSDPIGNNKTEATLLGLKGEKGVEVSLPIESTKPGITLNIPMVAPQDYPPYVYVFRLTDVE
B2: FucA1;FucA: α-L-fucosidase FucA1 from Rattus norvegicus (Uniprot P17164) (protein, UniProt P17164 29-462, looked up)
Tissue alpha-L-fucosidase: APHHYTPDWPSLDSRPLPRWFDEAKFGLFVHWGVYSVPAWGSEWFWWHWQGEQSSAYVRFMKENYPPGFSYADFAPQFTARFFHPEEWADLFQAAGAKYVVLTAKHHEGFTNWPSAVSWNWNSKDVGPHRDLVGELGAAVRKRNIRYGLYHSLFEWFHPLYLLDKKNGLKTQHFVSTKTMPELYDLVNRYKPDLIWSDGEWECPDSYWNSTEFLAWLYNESPVKDQVVVNDRWGQNCSCRHGGYYNCEDKYRPHSLPDHKWEMCTSVDKASWGYRRDMSMSTIVDENEIIEELVQTISLGGNYLLNIGPNKDGVIVPIFQERLLAVGKWLQINGEAIYASKPWRVQSERNKTVVWYTTKDSAVYATFLHWPEDGVVNLQSPKMTSATKITMLGMEGELHWTQDPLEGVLITLPQLPPGTFPVESAWTLKLTKVN
B3: FUCA1: α-L-fucosidase from Canis lupus familiaris (Uniprot P48300) (protein, UniProt P48300 27-465, looked up)
Tissue alpha-L-fucosidase: LVRAAAPPRRYTPDWQSLDSRPLPDWFDKAKFGVFVHWGEFAVPAWGSEWFWWHWKGEGLPQYEQFMSENYPPGFSYADFGPQFTARFFHPDTWADLFQAAGARYVVLTTKHHEGFTNWPSSVSWNWNSNDVGPHRDLVGELGRALRKRNIRYGLYHSLLEWFHPLYLLDKKNNFKTQFFVRAKTMPELYDLVNRYEPDLIWSDGEWKCPDTYWNSTEFLSWLYNDSPVKDHVVVNDRWGQNCSCHHGGYYNCQDKYKPESLPDLKWEMCTSIDKVSWGYRRNMVMSDVASECEIISELVQTVSLGGNYLLNIGPTKDGLIVPIFQERLLSIGKWLSINGEAIYASKPWRVQLEKNTTSVWYTSRGMTVYAIFLRWPENGVLSLKSPVTTSTTQITMLGIQKDLKWSTEPEGLLIYLPQLSLFTLPVEFGWTIKLTGVE
B4: AtFUC1;At2g28100: α-1,3/4-L-fucosidase 1 from Arabidopsis thaliana (Uniprot Q8GW72) (protein, UniProt Q8GW72 24-506, looked up)
Alpha-L-fucosidase 1: SSLLKPHPCPILPLPSSQQLQWQLGSMAMFLHFGPNTFTDSEWGTGKANPSIFNPTHLNASQWVQIAKDSGFSRVILTAKHHDGFCLWPSEYTDYSVKSSQWRNGAGDVVAELASAAKEAGIGLGLYLSPWDRHEQCYGKTLEYNEFYLSQMTELLTKYGEIKEVWLDGAKGDGEKDMEYFFDTWFSLIHQLQPKAVIFSDAGPDVRWIGDEAGLAGSTCWSLFNRTNAKIGDTEPSYSQEGDGYGQDWVPAECDVSIRPGWFWHASESPKPAVQLLDIYYNSVGRNCLFLLNVPPNSSGLISEQDIKVLEEFSEMKNSIFSNNLARKAFVNSSSIRGDQSSQFGPKNVLEEGLDKYWAPEENQNEWVLYLEFKDLVSFNVLEIREPIHMGQRIASFHLETRKTGSGEWERVVSGTTVGNKRLLRFLNVVESRSLKLVVDKARTDPLISYLGLYMDKFSGSSRNTTKITITRTLKEEQQLHDL
B5: FucA2;Mgc1314;dJ20N2.5: α-L-fucosidase FucA2 from Homo sapiens (Uniprot Q7Z6V2) (protein, UniProt Q9BTY2 29-467, looked up)
Plasma alpha-L-fucosidase: HSATRFDPTWESLDARQLPAWFDQAKFGIFIHWGVFSVPSFGSEWFWWYWQKEKIPKYVEFMKDNYPPSFKYEDFGPLFTAKFFNANQWADIFQASGAKYIVLTSKHHEGFTLWGSEYSWNWNAIDEGPKRDIVKELEVAIRNRTDLRFGLYYSLFEWFHPLFLEDESSSFHKRQFPVSKTLPELYELVNNYQPEVLWSDGDGGAPDQYWNSTGFLAWLYNESPVRGTVVTNDRWGAGSICKHGGFYTCSDRYNPGHLLPHKWENCMTIDKLSWGYRREAGISDYLTIEELVKQLVETVSCGGNLLMNIGPTLDGTISVVFEERLRQMGSWLKVNGEAIYETHTWRSQNDTVTPDVWYTSKPKEKLVYAIFLKWPTSGQLFLGHPKAILGATEVKLLGHGQPLNWISLEQNGIMVELPQLTIHQMPCKWGWALALTNVI

Parameters: method as in earlier work
Settings: S2 Table; wrapped lists given only as far as the first printed line; ref http://www.cazy.org/GH29_characterized.html and S2 Table refs 1-18
For B1, the Reported substrates hydrolyzed is listed as 6- O-alpha-L-fucopyranosyl- N-acetylglucosaminitol and the “Reported substrates not hydrolyzed” value is listed as “Lacto-N-fucopentaitol II”.
For B2, the Reported substrates hydrolyzed is listed as “Hydrolyzes pNP-Fuc, α1-2, α1-3, and α1-4 fucosyl linkages” and the “Reported substrates not hydrolyzed” value is listed as “Fucα1- 2GlcNAcβ-p NP”.
In the case of B3, the Reported substrates hydrolyzed is listed as 4- methylumbelliferyl- α- L-fucopyrano side and the “Reported substrates not hydrolyzed” value is listed as 4- methylumbellife ryl β-fucopyranos i de.
For B4, the Reported substrates hydrolyzed is given as 2-aminobenzamide labeled LNFP II, 3FL, fucose linked α1-4 and the “Reported substrates not hydrolyzed” value is given as 2-aminobenzamide labeled 2’-FL, pNP-Fuc.
For B5, the Reported substrates hydrolyzed is listed as “Hydrolyzes pNP-Fuc, prefers α1-2 but capable of cleaving”.

Same assay, conditions: S2 Table; wrapped lists given only as far as the first printed line; ref http://www.cazy.org/GH29_characterized.html and S2 Table refs 1-18; listed as FucA1
In the case of B3, the Reported substrates hydrolyzed is listed as 4- methylumbellife ryl α- L-fucopyranoside, pNP-F uc, 2’ -FL.
